# In the supplement of paper PMC5998384:
# Columns and labels:
# [1] = system: HeLa Kyoto; experiment: melting temperature (median over replicates), in situ; higher = more thermally stable
# [2] = system: HeLa Kyoto; experiment: solubility change mitosis vs G1/S (difference of NP-40 vs SDS log2 ratios) (log2 ratio difference); higher = more soluble in mitosis
# [3] = system: HeLa Kyoto; experiment: solubility in G1/S (NP-40 vs SDS abundance) (log2 ratio); higher = more soluble; details: cell cycle stage: G1/S
# [4] = system: HeLa Kyoto; experiment: thermal stability score vs G1/S (z-score of summed log2 fold changes over temperatures); higher = more thermally stable than in G1/S
# [5] = cell cycle stage: early G1 (4.5 h after nocodazole release)
# 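Wherever melting temperature (median over replicates), in situ is given: HeLa Kyoto cells synchronized by double thymidine or nocodazole block, proteins quantified by TMT10plex mass spectrometry, three independent biological replicates.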
# 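Wherever solubility change mitosis vs G1/S (difference of NP-40 vs SDS log2 ratios) is given: synchronized HeLa Kyoto cells (double thymidine block for G1/S, nocodazole release for mitosis), protein amounts in NP-40 versus SDS lysates quantified by mass spectrometry, three biological replicates.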
# 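Wherever solubility in G1/S (NP-40 vs SDS abundance) is given: HeLa Kyoto cells arrested at G1/S by double thymidine block, proteins quantified by TMT10plex mass spectrometry in mild NP-40 versus SDS extracts, three biological replicates.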
# 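Wherever thermal stability score vs G1/S (z-score of summed log2 fold changes over temperatures) is given: synchronized HeLa Kyoto cells, proteins quantified by TMT10plex mass spectrometry, three biological replicates, mitosis taken 0.5 h after nocodazole release, G1/S directly after double thymidine block.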
Sequence,melting temperature ([1]; cell cycle stage: G1/S),melting temperature ([1]; cell cycle stage: mitosis),solubility change mitosis (log2) [2],solubility in G1/S (log2) [3],"thermal stability score [4, 5]",thermal stability score ([4]; cell cycle stage: mitosis)
MLPARLPFRLLSLFLRGSAPTAARHGLREPLLERRCAAASSFQHSSSLGRELPYDPVDTEGFGEGGDMQERFLFPEYILDPEPQPTREKQLQELQQQQEEEERQRQQRREERRQQNLRARSREHPVVGHPDPALPPSGVNCSGCGAELHCQDAGVPGYLPREKFLRTAEADGGLARTVCQRCWLLSHHRRALRLQVSREQYLELVSAALRRPGPSLVLYMVDLLDLPDALLPDLPALVGPKQLIVLGNKVDLLPQDAPGYRQRLRERLWEDCARAGLLLAPGHQGPQRPVKDEPQDGENPNPPNWSRTVVRDVRLISAKTGYGVEELISALQRSWRYRGDVYLVGATNAGKSTLFNTLLESDYCTAKGSEAIDRATISPWPGTTLNLLKFPICNPTPYRMFKRHQRLKKDSTQAEEDLSEQEQNQLNVLKKHGYVVGRVGRTFLYSEEQKDNIPFEFDADSLAFDMENDPVMGTHKSTKQVELTAQDVKDAHWFYDTPGITKENCILNLLTEKEVNIVLPTQSIVPRTFVLKPGMVLFLGAIGRIDFLQGNQSAWFTVVASNILPVHITSLDRADALYQKHAGHTLLQIPMGGKERMAGFPPLVAEDIMLKEGLGASEAVADIKFSSAGWVSVTPNFKDRLHLRGYTPEGTVLTVRPPLLPYIVNIKGQRIKKSVAYKTKKPPSLMYNVRKKKGKINV [NOA1],49.8 °C,50.1 °C,-0.187,0.131,-0.456,0.655
MHPPKTPSGALHRKRKMAAWPFSRLWKVSDPILFQMTLIAALLPAVLGNCGPPPTLSFAAPMDITLTETRFKTGTTLKYTCLPGYVRSHSTQTLTCNSDGEWVYNTFCIYKRCRHPGELRNGQVEIKTDLSFGSQIEFSCSEGFFLIGSTTSRCEVQDRGVGWSHPLPQCEIVKCKPPPDIRNGRHSGEENFYAYGFSVTYSCDPRFSLLGHASISCTVENETIGVWRPSPPTCEKITCRKPDVSHGEMVSGFGPIYNYKDTIVFKCQKGFVLRGSSVIHCDADSKWNPSPPACEPNSCINLPDIPHASWETYPRPTKEDVYVVGTVLRYRCHPGYKPTTDEPTTVICQKNLRWTPYQGCEALCCPEPKLNNGEITQHRKSRPANHCVYFYGDEISFSCHETSRFSAICQGDGTWSPRTPSCGDICNFPPKIAHGHYKQSSSYSFFKEEIIYECDKGYILVGQAKLSCSYSHWSAPAPQCKALCRKPELVNGRLSVDKDQYVEPENVTIQCDSGYGVVGPQSITCSGNRTWYPEVPKCEWETPEGCEQVLTGKRLMQCLPNPEDVKMALEVYKLSLEIEQLELQRDSARQSTLDKEL [C4BPA],54.4 °C,56.1 °C,-0.146,-0.459,5.62,9.17
MSTARTENPVIMGLSSQNGQLRGPVKPTGGPGGGGTQTQQQMNQLKNTNTINNGTQQQAQSMTTTIKPGDDWKKTLKLPPKDLRIKTSDVTSTKGNEFEDYCLKRELLMGIFEMGWEKPSPIQEESIPIALSGRDILARAKNGTGKSGAYLIPLLERLDLKKDNIQAMVIVPTRELALQVSQICIQVSKHMGGAKVMATTGGTNLRDDIMRLDDTVHVVIATPGRILDLIKKGVAKVDHVQMIVLDEADKLLSQDFVQIMEDIILTLPKNRQILLYSATFPLSVQKFMNSHLQKPYEINLMEELTLKGVTQYYAYVTERQKVHCLNTLFSRLQINQSIIFCNSSQRVELLAKKISQLGYSCFYIHAKMRQEHRNRVFHDFRNGLCRNLVCTDLFTRGIDIQAVNVVINFDFPKLAETYLHRIGRSGRFGHLGLAINLITYDDRFNLKSIEEQLGTEIKPIPSNIDKSLYVAEYHSEPVEDEKP [DDX6],51.5 °C,51 °C,0.0947,-0.136,0.486,-0.288
MMFYRLLSIVGRQRASPGWQNWSSARNSTSAAEARSMALPTQAQVVICGGGITGTSVAYHLSKMGWKDIVLLEQGRLAAGSTRFCAGILSTARHLTIEQKMADYSNKLYYQLEQETGIQTGYTRTGSIFLAQTQDRLISLKRINAGLNVIGIPSEIISPKKVAELHHLLNVHDLVGAMHVPEDAVVSSADVALALASAASQNGVQIYDRTSVLHVMVKKGQVTGVETDKGQIECQYFVNCAGQWAYELGLSNEEPVSIPLHACEHFYLLTRPLETPLQSSTPTIVDADGRIYIRNWQGGILSGGFEKNPKPIFTEGKNQLEIQNLQEDWDHFEPLLSSLLRRMPELETLEIMKLVNCPETFTPDMRCIMGESPAVQGYFVLAGMNSAGLSFGGGAGKYLAEWMVHGYPSENVWELDLKRFGALQSSRTFLRHRVMEVMPLMYDLKVPRWDFQTGRQLRTSPLYDRLDAQGARWMEKHGFERPKYFVPPDKDLLALEQSKTFYKPDWFDIVESEVKCCKEAVCVIDMSSFTKFEITSTGDQALEVLQYLFSNDLDVPVGHIVHTGMLNEGGGYENDCSIARLNKRSFFMISPTDQQVHCWAWLKKHMPKDSNLLLEDVTWKYTALNLIGPRAVDVLSELSYAPMTPDHFPSLFCKEMSVGYANGIRVMSMTHTGEPGFMLYIPIEYALHVYNEVMSVGQKYGIRNAGYYALRSLRIEKFFAFWGQDINNLTTPLECGRESRVKLEKGMDFIGRDALLQQKQNGVYKRLTMFILDDHDSDLDLWPWWGEPIYRNGQYVGKTTSSAYSYSLERHVCLGFVHNFSEDTGEEQVVTADFINRGEYEIDIAGYRFQAKAKLYPVASLFTQKRRKDDMELSDLHGK [PDPR],53.6 °C,53.7 °C,-0.203,-0.175,-1.29,-1.55
MLERPPALAMPMPTEGTPPPLSGTPIPVPAYFRHAEPGFSLKRPRGLSRSLPPPPPAKGSIPISRLFPPRTPGWHQLQPRRVSFRGEASETLQSPGYDPSRPESFFQQSFQRLSRLGHGSYGEVFKVRSKEDGRLYAVKRSMSPFRGPKDRARKLAEVGSHEKVGQHPCCVRLEQAWEEGGILYLQTELCGPSLQQHCEAWGASLPEAQVWGYLRDTLLALAHLHSQGLVHLDVKPANIFLGPRGRCKLGDFGLLVELGTAGAGEVQEGDPRYMAPELLQGSYGTAADVFSLGLTILEVACNMELPHGGEGWQQLRQGYLPPEFTAGLSSELRSVLVMMLEPDPKLRATAEALLALPVLRQPRAWGVLWCMAAEALSRGWALWQALLALLCWLWHGLAHPASWLQPLGPPATPPGSPPCSLLLDSSLSSNWDDDSLGPSLSPEAVLARTVGSTSTPRSRCTPRDALDLSDINSEPPRGSFPSFEPRNLLSLFEDTLDPT [PKMYT1],48.7 °C,49 °C,-0.332,0.406,0.535,0.495
